The values below come from patent EP0813419B1 (YEDA RESEARCH & DEVELOPMENT COMPANY, LTD., dated 2005).

T1: intracellular domain of the human p75 TNF receptor (human, UniProt P20333 288-461, limits assumed)
T1 construct: domain: intracellular domain; construct not described; also called p75IC
T1 sequence (looked up): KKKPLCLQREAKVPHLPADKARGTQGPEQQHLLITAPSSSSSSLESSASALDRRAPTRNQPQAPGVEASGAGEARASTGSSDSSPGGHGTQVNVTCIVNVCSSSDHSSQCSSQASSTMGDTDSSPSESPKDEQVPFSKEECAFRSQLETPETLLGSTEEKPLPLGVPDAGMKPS

B1: 'death domain' (DD) of human MORT-1 (residues 92-208) (other, not shown: large carriers)
chain: PGEEDLCAAFNVICDNVGKDWRRLARQLKVSDTKIDSIEDRYPRNLTERVRESLRIWKNTEKENATVAHLVGALRSCQMNLVADLVQEVQQARDLQNRSGAMSPMSWNSDASTSEAS
notes: Gal4 hybrid construct in yeast; also called HF1; MORT-1 DD
B2: 'death domain' (DD) of human TRADD (residues 195-312) (other, not shown: large carriers)
chain: PPPPAQTFLFQGQPVVNRPLSLKDQQTFARSVGLKWRKVGRSLQRGCRALRDPALDSLAYEYEREGLYEQAFQLLRRFVQAEGRRATLQRLVEALEENELTSLAEDLLGLTDPNGGLA
notes: Gal4 hybrid construct in yeast; also called TRADD DD
B3: DD of the rat low-affinity NGF receptor (receptor, UniProt P07174 340-425, looked up)
chain: LPLTKREEVEKLLNGDTWRHLAGELGYQPEHIDSFTHEACPVRALLASWGAQDSATLDALLAALRRIQRADIVESLCSESTATSPV
notes: domain: DD; Two-hybrid control; construct not described

Data set [1] has as its target T1, intracellular domain of the human p75 …. Put plainly: yeast two-hybrid specificity test (not shown).
Data set [2] deals with B2. Put plainly: yeast two-hybrid (Gal4 DBD and AD fusions, SFY526), beta-galactosidase filter assay.
Data set [3] deals with the molecule itself. The data set is described as follows: yeast two-hybrid (Gal4 DBD and AD fusions, SFY526), beta-galactosidase filter assay; self-association.
In data set [4] the target is B1. Put plainly: yeast two-hybrid specificity test (not shown).
Data set [5] deals with B2. Put plainly: yeast two-hybrid specificity test (not shown).

As to B1, the binding result is listed as “no binding” in data set [1], “binds” in data set [2] and “no binding” in data set [3].
As for B2, the binding result in data set [1] was “no binding”; in data set [3] it was “binds”.
Regarding B3, the binding result in data set [4] and in data set [5] was “no binding” in each case.
